Columns and labels:
[1] = test system: Ps. aeruginosa (Pak strain); assay: in vitro growth inhibition assay in Luria Broth Base (LB) (Bioscreen C, OD 420-580 nm); format: cell-based, Pseudomonas aeruginosa; conditions: 2% (w/v) LF in PBS, sample pH of 1.7 or lower; 200 CFU's/well (200 CFU's:1 mg LF); FIG. 1B
[2] = test system: E. coli ATCC 43895 (E. coli O157:H7); assay: in vitro Tryptic Soy Broth (TSB) growth inhibition assay (Bioscreen C, OD 420-580 nm); format: cell-based, Escherichia coli

B1: lactoferrin (protein, UniProt P02788 20-710, looked up)
Lactotransferrin: GRRRSVQWCAVSQPEATKCFQWQRNMRKVRGPPVSCIKRDSPIQCIQAIAENRADAVTLDGGFIYEAGLAPYKLRPVAAEVYGTERQPRTHYYAVAVVKKGGSFQLNELQGLKSCHTGLRRTAGWNVPIGTLRPFLNWTGPPEPIEAAVARFFSASCVPGADKGQFPNLCRLCAGTGENKCAFSSQEPYFSYSGAFKCLRDGAGDVAFIRESTVFEDLSDEAERDEYELLCPDNTRKPVDKFKDCHLARVPSHAVVARSVNGKEDAIWNLLRQAQEKFGKDKSPKFQLFGSPSGQKDLLFKDSAIGFSRVPPRIDSGLYLGSGYFTAIQNLRKSEEEVAARRARVVWCAVGEQELRKCNQWSGLSEGSVTCSSASTTEDCIALVLKGEADAMSLDGGYVYTAGKCGLVPVLAENYKSQQSSDPDPNCVDRPVEGYLAVAVVRRSDTSLTWNSVKGKKSCHTAVDRTAGWNIPMGLLFNQTGSCKFDEYFSQSCAPGSDPRSNLCALCIGDEQGENKCVPNSNERYYGYTGAFRCLAENAGDVAFVKDVTVLQNTDGNNNEAWAKDLKLADFALLCLDGKRKPVTEARSCHLAMAPNHAVVSRMDKVERLKQVLLHQQAKFGRNGSDCPDKFCLFQSETKNLLFNDNTECLARLHGKTTYEKYLGPQYVAGITNLKKCSTSPLLEACEFLRK
[1]
  time for which growth of Pseudomonas aeruginosa is inhibited: at least 45 hours
[2]; 2% (w/v) LF in PBS, test sample pH below 2.5, 530 CFU's:1 mg LF, 37° C., FIG. 1A
  time for which E. coli growth was inhibited: at least 60 hours
[2]; 2% (w/v) LF in demi water, 0-1 mM EDTA, pH about 5 not adjusted, 270 CFU's:1 mg LF, FIG. 2
  antimicrobial activity on E. coli O157:H7 as function of EDTA concentration: increases with increasing EDTA concentration

— patent US20080318834A1, “Antimicrobial Lactoferrin Compositions for Surfaces, Cavities, and Foodstuff” (priority 2004, published 2008)
